Consider 41 sequences from the nanobody polyreactivity screen of Harvey et al. (2022).

This data set is described as follows: yeast display, Sf9 membrane polyspecificity reagent, FACS + sequencing; frameworks hold sequencing errors. In short, it runs like this:
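Nanobodies from a synthetic yeast display library (Saccharomyces cerevisiae BJ5465), induced 36–48 hours with galactose, were stained 1 hour at 4 °C with 10% biotinylated, detergent-solubilized Sf9 membrane reagent, enriched on streptavidin microbeads, then FACS-sorted. Anti-HA (expression) and streptavidin (reagent binding) fluorescence set low and high (top ~1%) gates. Polyreactivity labels come from the gate of origin. Genes were colony-PCR amplified, MiSeq 2 × 250 sequenced and filtered by CDR length.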
In the case of “QVQLVESGGGLVQARGSLRLSCAASGRIFDRYDMGCYRQAPGKEREFVASITWSDGSTYYADSVKGRFTISRDYAKNTVYLQMNSLKPEDTAVYYCNADYVYYYIPVVYEYDYWGQGTQVTVSS”, the “polyreactivity (PSR sort gate)” value is listed as “high polyreactivity”.
The value for “QVQLVESGGGLVQARGSLRLSCAASGRIFNYYAMGWYRQAPGKERELVAAISGSGGRTYYADSVKGRFTISRDNAKNTVYLQMNSLKPEDTAVYYCAADGVDGYDYWGLGTQVTVSS” was “high polyreactivity”; that for “QVQLVESGGGLVQARGSLRLSCAASGRTLYDYAMGWYRPAPGKERELVAAISSSGATTYYADSVKGRFTISRDHAKNTVYLQMNSLKPEDTAVYYCAAESVHQAWSGYYYWGQGTQVTVSS” was “high polyreactivity”.
In the case of “QVQLVESGGGLVQARGSLRLSCAASGSIFDFYAMGWYRQAPGKERELVAAISGSGGSTYYADSVKARFTISRDNAKNNGYLQMISLKPDDTAVYYCSYYYWGQGTQVTVSS”, the “polyreactivity (PSR sort gate)” value is given as “low polyreactivity”.
With “QVQLVESGGGLVQARGSLRLSCAASGSIFFPYAMGWYRQAPGKERELVAAIRYSAGSTYYADSVKGRFTISRDNAKNTVYLQMNSLKPEDTAVYYCNAGSSCWVSRIGYDYWGEGTQVTVSS” the entry was “high polyreactivity”; with “QVQLVESGGGLVQARGSLRLSCAASGSIFIRNAMGWYRQAPGKERELVAAISTIGGRTYYADSVKGRFTISRDNAKNTVYLQMNSLKPEDTAVYYCAAEQGTPSTNWYDYWGQGTQVTVSS”, “low polyreactivity”.
The value for “QVQLVESGGGLVQARGSLRLSCAASGSIIGGNAMGWYRQAPGKERELVATISWSGGSTYYADSVKGRFTISRDKAKNTVYLQMNSLKPEDTAVYYCAKTPYRRYRYGGYTYRTYEYWGQGTQVTVSS” was “low polyreactivity”; that for “QVQLVESGGGLVQARGSLRLSCAASGSTFGLYAMGWYRQAPGKERELVAAISYSGSSTYYADSVKGRFTISRDNAKNTVYLQMNSLKPEDTAVYYCAARRSEHGYNYWGQGTQVTVSS” was “high polyreactivity”.
Consider “QVQLVESGGGLVQARGSLRLSCAASGSTFRINAMGWYRQAPGKERELVAAITSGGSTKYADSVKGRFTISRDNAKNTVYLQMYILKPADTAVYYCNKQGYPFRYFAWYPGYNYWGQGTQVTVSS”, for which the “polyreactivity (PSR sort gate)” value was “low polyreactivity”.
For “QVQLVESGGGLVQARGSLRLSCAASGSTFYAYVMGWYRQATGKERELVAAISKGGGSTYYADSVKGRFTISRDNAKNTVYLQMNSLKPEDTAVYYSAAYASYSNYRKYNYWGQGTQVTVSS”, the “polyreactivity (PSR sort gate)” value is reported as “high polyreactivity”.
The value for “QVQLVESGGGLVQARGSLRLSCAASGSTFYYYAMALSRQAPVKERELFASISDHGSTNYADSVKGRFTISRDNAKNTVFLQMNSMKPEDTAVYYCGAVWCLQFGSAWYQMGYWGQVTQVTVSS” was “low polyreactivity”.
The value for “QVQLVESGGGLVQARGSLRLSCAASGSTLTRNTMGGYRQAPGKERELVAGITRSGSSTYYADSVKGRFTISRDNAKNTVYLQMNSLKPEDTAVYYCAAPYRYRQNLGYWGQGTQVTVSS” was “high polyreactivity”.
For “QVQLVESGGGLVQARGSLRLSCAASGTIFSSYAMGWYRQAPGKERELVAAIRWTGGSTYYADSVKGRFTISRDNAMNTVFLEMNSLKPEDTAVYFCTAEYWIDWGYDYWGQGTQVTVSS”, the “polyreactivity (PSR sort gate)” value is “low polyreactivity”.
The value for “QVQLVESGGGLVQARGSLRLSCAATGLTFYSNAMGWSRQAPGKERELVARISTGGSTYADSVKGRFTISRDNAKNTVYLQMNSLKPEDTAVYYCAKLPPRGIDDEYWGQGTQVTVSS” was “low polyreactivity”; that for “QVQLVESGGGLVQARGSLRLSFAASGGIFYSYAMGRYRQAPGKEREFVAAIRRSGGRTYYADSVKGRFTISRDNAKNTVYLQMNSLKPEDTAVYYCAADGWYSGGHDYWGQGTQVTVSS” was “high polyreactivity”; that for “QVQLVESGGGLVQARGSLRLSWAASGIIFALYAMGWSRQAPGKERELVAAISSDGITKYADSVKGRFTISRDNAKNPDYLQMNSLKPEDTAVYYCAADGYPGDYDYWGQGTQVTVSS” was “low polyreactivity”.
Regarding “QVQLVESGGGLVQARVSLRLSCAASGITFRYYAMGWYRQAPGKERELVAAITRGGGSTYYADSVKGRFTISRDNAKNTVYLQMNSLKPEDTAVYYCAAAGSRYAWGYGYWGQGTQVTVSS”, the “polyreactivity (PSR sort gate)” value was “high polyreactivity”.
The value for “QVQLVESGGGLVQAVGRLRLSCAASGITLSLYAMGWYRQATGKETELVAAISRGGGRTYYADSVKGRFTISRDNAKNTVYLQMNSLKPEDTAVYYCNKGRNPGPAYFASVDYWGQGTQVTVSS” was “high polyreactivity”.
The value for “QVQLVESGGGLVQAVGRLRLSCAASGRTFYYNGMGWYRQAPGKERELVAAISSGGTTSYADSVKGRFTISRDNAKNTVYLQMNSLKPEDTAVYYCNVYDKAPAYDYWGQGTQVTVSS” was “low polyreactivity”; that for “QVQLVESGGGLVQAVGSHRLICAASGSIFPYYAMGWYRQAPGKERELVATITYRGGSTNYADSVKGRFTISRDNAKNTVYLQMNSLKPEDTAVYYCAAEYYSIRYGPHSIEVYGMDYWGQGTHVTVSS” was “low polyreactivity”.
The value for “QVQLVESGGGLVQAVGSLRLSCAASGFTFQHYAMGWYRQAPGNERELVAVISFSGGRTYYADSVKGRFTISRDNAKNTVYLQMNSLKPEDTAVYYCAAVFWDDYGKYYYWGLGTQVTVSS” was “high polyreactivity”.
For “QVQLVESGGGLVQAVGSLRLSCAASGLTFYPNAMGWYRQAPGKERQFVDSISISGRTYYADSVKGRFTISRDNAKNTVYLQMNSLKPEDTAVYYCAARYVRSGLYRKYDYWGQGTQVTVSS”, the “polyreactivity (PSR sort gate)” value is “high polyreactivity”.
With “QVQLVESGGGLVQAVGSLRLSCAASGLTFYSNAMGWYRQPHGKERELVATISQDGGRTYADSVKGRFTISRDNAKNTVYLQMNSLKPEDTAVYYCAADYSGNYDFGYWGQGTQVTVSS” the entry was “low polyreactivity”; with “QVQLVESGGGLVQAVGSLRLSCAASGRIFGYYDMGWYRQAPGKERELVAAINYDGGSTYYADSVKGRFTISRDNAKNTVYLQMNSLKPDDTAVYYCNKDGRVYLDHDYWGQGTQVTVSS”, “low polyreactivity”; with “QVQLVESGGGLVQAVGSLRLSCAASGRIFNYYAMGWYRQAPGKEREMVAGISGYGTSTYYADSVKGRFTISRDNAKNTVYLQMNSLKPEDTAVYYCAADVFRDDVWLDYWGHGTQVTVSS”, “low polyreactivity”.
With “QVQLVESGGGLVQAVGSLRLSCAASGRIFRYNAMGWYRQAPVKERELVASITSAGSTNYADSVKGRFTISRDNAKNTVYLQMNSLKPEDTAVYYCAARAQSPPYGYWGQGTQVTVSS” the entry was “high polyreactivity”; with “QVQLVESGGGLVQAVGSLRLSCAASGRTFARNAMGWYRQAPGKERELVAVITSGTSTYYADSVKGRFTISRDYAKNTVYLQMNSLKPEDTAVYYCAARSPGRAGIYYSWGQGTQVTVSS”, “high polyreactivity”.
The value for “QVQLVESGGGLVQAVGSLRLSCAASGRTFNRYGMGWYRQAPAKEMELVAAIRWSGTTTYYADSVKGRFTISRDNAKNTVYLQMNSQKPEDTAVYYCAAGTNVGRYGYYYWGQGTQVTVSS” was “high polyreactivity”.
For “QVQLVESGGGLVQAVGSLRLSCAASGRTFWANTMGWYRQAPGKERELVAAISKRGGSTYYADSVKGRFTISRDNAKNTVYLQMNSLKPEDTAVYYCNADKSGWYDYWGQGTQVTVSS”, the “polyreactivity (PSR sort gate)” value was “high polyreactivity”.
Take “QVQLVESGGGLVQAVGSLRLSCAASGRTIAGYTMGWYRQARGQERELVAAISGRGGSTYYADSVKGRYTISRDNAKNTVYLQMNSLKPEDTAVYYCAAYTQGYWGRGRYGYCGQGTQVTVSS”: the “polyreactivity (PSR sort gate)” value is given as “high polyreactivity”.
The value for “QVQLVESGGGLVQAVGSLRLSCAASGRTSPRNAMGWYRQAPGKERELVAAINRTGGTTYYSDSVKGRFTISRDNAKNTVYLQMNSLIPEDTAVYYCAADVWVSTSGDWFRYDYWGQGTQVTVSS” was “high polyreactivity”.
With “QVQLVESGGGLVQAVGSLRLSCAASGSIFPDNAMGWYRQAPRKERELVASISWSGGSTYYADSVKGRFTISRDNAKNPVYLQRNSLKPEDTAVYYCARTYYWYLRVDYWGQGTQVTVSS” the entry was “low polyreactivity”.
The value for “QVQLVESGGGLVQAVGSLRLSCAASGSIFTPYAMGWYRQAPGKERELVAAISGSGGSTRYADSVKGRFTISRDNATNTVYLQMNSLKPEDTAVYYCAADRYTYIWYHIYDYWGQGTQVTVSS” was “low polyreactivity”; that for “QVQLVESGGGLVQAVGSLRLSCAASGSTFREYTMGWYRQAPGKERELVAAITNSGGSTYYADSVKGRFTISRDNAKNTVYLQMNSLKPEDTAVYYCAAEGRYFYFTVKMDYWGQGTQVTVSS” was “low polyreactivity”; that for “QVQLVESGGGLVQAVGSLRLSCAASGSTFWFNAMGWYRQAPGKERELVAAIPSRGGYTYYADSVKGRFTISRDNAKNTVYLQMNSLKPEDTAVYYCAADYRYSSRKVFHFDYWGQGTQVTVSS” was “low polyreactivity”.
As to “QVQLVESGGGLVQEGASLRLICAASGRTSYRYAMGWNRQAPGKERELVAAISFGGGSTYYADSVKGRFTISRDYAKNTVYLQMNSLKPEDTAVYYCATDRVKYRNIYTDTGFDYWGQGTQVTVSS”, the “polyreactivity (PSR sort gate)” value is reported as “high polyreactivity”.
With “QVQLVESGGGLVQEGGSLRLSCAASASIFRYNAMGWYRQAPGKERELVAAITSRDGSTYYADSVKGRFTISRDNAQNTVYFQMNSLKPEDTAVYYCAVQPDSGNYDSGIYDRVGMDYWGQGTQVTVSS” the entry was “low polyreactivity”; with “QVQLVESGGGLVQEGGSLRLSCAASGFIFAWYDMGWYRQAPGKERELVAAISYYGGSTYYADSVKGRFTISRDNAKNTVYLQMNSLKPVDTAVYYCIKVSRGGSYGDAFDYWGQGTQVTVSS”, “high polyreactivity”.
“QVQLVESGGGLVQEGGSLRLSCAASGFIFRYYAMGWYRQAPGKERELVAAISSSGGSTYYADSVKGRFTISRDNAKNTVYLQMNSLKPEDTAVSYCNAYNYGYIGYGYNYWGQGTQVTVSS”: the “polyreactivity (PSR sort gate)” value is recorded as “high polyreactivity”.
On to “QVQLVESGGGLVQEGGSLRLSCAASGFTFVSNAMGWYRQAPGKERELVAAITYSGTRTYYADSVKGRFTISRDNAKTTVYLQMNSLKPEDTAVYYCAARRGYASAYYYWGQGTQVTVSS”, for which the “polyreactivity (PSR sort gate)” value was “high polyreactivity”.
As for “QVQLVESGGGLVQEGGSLRLSCAASGFTLHVYAMGWYRQAPGKERELVAAISTGGNTNYADSVKGRFTISRDNAKNTVYLQMNSLKPEDTAVYYCNARYTSRRSRRPYYYWGQGTQVTVSS”, the “polyreactivity (PSR sort gate)” value is “high polyreactivity”.
